As a reminder, the Km is the substrate concentration at which the rate is half of its maximum. What is called kcat is the maximal rate divided by the concentration of active sites.

To fix the notation:
B1: Axe2 (Geobacillus stearothermophilus) (protein)
chain: MKIGSGEKLLFIGDSITDCGRARPEGEGSFGALGTGYVAYVVGLLQAVYPELGIRVVNKGISGNTVRDLKARWEEDVIAQKPDWVSIMIGINDVWRQYDLPFMKEKHVYLDEYEATLRSLVLETKPLVKGIILMTPFYIEGNEQDPMRRTMDQYGRVVKQIAEETNSLFVDTQAAFNEVLKTLYPAALAWDRVHPSVAGHMILARAFLREIGFEWVRSR
B2: Axe2 (Geobacillus stearothermophilus; R205A/W215A/Y184F) (protein)
chain: B1 chain with Y184F, R205A, W215A
B3: Axe2 (Geobacillus stearothermophilus; R55E) (protein)
chain: B1 chain with R55E
B4: Axe2 (Geobacillus stearothermophilus; W190P/Y184F) (protein)
chain: B1 chain with Y184F, W190P
B5: Axe2 (Geobacillus stearothermophilus; R55A) (protein)
chain: B1 chain with R55A
B6: Axe2 (Geobacillus stearothermophilus; Y184N) (protein)
chain: B1 chain with Y184N
B7: Axe2 (Geobacillus stearothermophilus; Y184F) (protein)
chain: B1 chain with Y184F
B8: Axe2 (Geobacillus stearothermophilus; W190I) (protein)
chain: B1 chain with W190I

Positions count from the first letter of the chain named. Names and notes keep the numbering of the source.

Substrate in this series: CC(=O)Oc1ccc2ccccc2c1
Put plainly: esterase activity assay. Particulars: 2-naphthyl acetate 1-20 mM in isopropanol, citrate phosphate buffer pH 7. The series is classed as biochemical, Geobacillus stearothermophilus.
As for B1, the Km amounted to 300 µM and the catalytic constant (kcat) amounted to 720 s⁻¹.

As to B2, the Km was found to be 6700 µM and the kcat came out at 42 s⁻¹.

Turning to B3, the Km is 500 µM and the kcat was found to be 1000 s⁻¹.

As to B4, the Km turned out to be 3000 µM and the kcat was found to be 44 s⁻¹.

For the protein B5, the Km is 600 µM and the kcat is 1000 s⁻¹.

Turning to B6, the Km amounted to 1300 µM and the kcat is on record as 8.0x10^0 sec-1.

In the case of B7, the Km is 4600 µM and the kcat was determined as 36 s⁻¹.

With B8, the Km came to 700 µM and the kcat is 290 s⁻¹.

The record behind these values is doi:10.1101/466904v1.
